Among the targets are Human FcγRIIB (human) (UniProt P31994); Human FcγRI (human) (UniProt P12314); Human FcγRIIIB (human) (UniProt O75015); Human FcγRIIA (human) (UniProt P12318); Human FcRn (human) (UniProt P55899).
The target in assay [1] is Human FcγRIIIA-F158 (human) (UniProt P08637).

This passage reports kon results from patent US20240409659A1.

For orientation: kon means a measure of how fast the partners come together. On to control IgG (7101+7103) (antibody), for which the on-rate (kon) came out at 124000 M⁻¹ s⁻¹ in the assay with Human FcγRIIB (human); 880000 M⁻¹ s⁻¹ in assay [1]; 289000 M⁻¹ s⁻¹ with Human FcγRI (human); 128000 M⁻¹ s⁻¹ in the assay with Human FcγRIIIB (human); 300000 M⁻¹ s⁻¹ with Human FcγRIIA (human); 1.98e+06 M⁻¹ s⁻¹ with Human FcRn (human).
